± gives the half width of the 95% confidence interval.
assay: folding stability dG unfold from chymotrypsin proteolysis; higher = more stable
Method in brief: (§1)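 K50 was inferred by Bayesian fitting of sequencing counts obtained after protease digestion of designed mini-proteins. Unfolding free energy was derived by comparison with a sequence-predicted unfolded-state K50 and a shared folded-state K50, for each protease or both combined. The mini-proteins were under 80 residues, had no cysteine, were carried in a PA-tagged cDNA display construct, and were kept only if AlphaFold2 dimer inter-PAE exceeded 15.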

Sequence	folding stability dG unfold [kcal/mol]
SAYKITIKITITDPVTGETTTITVELISSEEEAKKEAEKLAASYPGKKVTIDLVEVVPVPPLSEEELKLSSA [r9_421_JUSTAS]	2.68 ± 0.054
SAGGSAGGSAGMEIEEKGDYLVIRIKVKEGETIELPEGWEVVDVEYDPETEEVTIVIRRKSAGGSAGGSAGG [r11_942_TrROS_Hall]	2.88 ± 0.1
SAGMNLSPEEIAERIREEAKKKYPNSEVEVRIVSQPPTTIVLEVKITIYFPEEGGSIIEEPRVITIDRLSAG [r14_187_JUSTAS]	2.17 ± 0.13
SAGGSAGGKKFKPGQVVLDPKTKELYVIKGEVTVKEDGSLSIKVEKVKLPKPKKLTKEQLEKLKSAGGSAGG [r6_771_TrROS_Hall]	0.613 ± 0.23
SAGGSASLEEVASLPASALAAAAGLTALSVEVTREPDGTVTVTIETRPPDGPVVTVTYTFPVDPAASAGGSA [r15_805_JUSTAS]	2.6 ± 0.098
SAGGSAGGSAGGGKPVKVIVVEVGGKKVLVTFDEDTGKLTVYNLDTGKTETVTVSPEDLSAGGSAGGSAGGS [r10_669_TrROS_Hall]	1.67 ± 0.066
SAGGSAGGSAGGSMTSIKITYPDGSTKSASVSVDPNTGKVTTTFTDYTLSPDAKFTTISSAGGSAGGSAGGS [r10_306_JUSTAS]	0.202 ± 0.11
SAGGSAGGSAGEEFIKKIPPGAEVKPITPLESEGKVYVKITVKKKDENGKWTEEEFIFKVSAGGSAGGSAGG [r17_140_JUSTAS]	1.38 ± 0.087
SAGGSAGGSAGGPNPDMKFEIVTIKVPPDEVPKSEPIEDPDGHNFFLHFDGNTYTIWRMDSAGGSAGGSAGG [r7_97_TrROS]	1.39 ± 0.42
SAGGSAGGSLKPFPIEDITVQPRRNPDGNRYYQVSIRIKGPGRPINIPFPMDNPKKFLEDIIKSAGGSAGGS [r20_238_TrROS]	0.143 ± 0.12
SAGGSAKVVEKDGKLVIELEVPPDMSEEELKKLAEELAKLLPPGAKIEVKYDKETKRVVIVVELKDSAGGSA [r15_210_TrROS_Hall]	1.79 ± 0.16
SKKKVTININITPGDPEQMEENVRWAIKEAAENDPDKEVTITIHFPPGHPEWMRWIKELFTKKGIPITIHSA [r9_1202_TrROS]	3.3 ± 0.037
SAGGSAGGSAETVTITLTVPPGASVEEILAALKAKYPDITSVSVERREDGYLKVTVTVRLDSAGGSAGGSAG [r3_371_TrROS_Hall]	4.02 ± 0.068
SEAEIKIKEVDENGYLVLEIKVPKEEVEKLREKLKELFPNAEIVEVKYDEETGEVTIIVRLPDGKLYEFKSA [r9_1164_TrROS_Hall]	1.05 ± 0.099
KTVHIPINGMPLDEMLDMARDALREDPDEGKTITIWVPGNPEWLENLGFDKIEPYKDPERPYMRIKFKVPPS [r1_467_TrROS]	1.24 ± 0.22
SAGGSAGGSKEEIRKRIAERLRELIPDAKITSIEFDEKTKKITITVDSPEVREALEKLPGIKPSAGGSAGGS [r12_623_TrROS_Hall]	1.63 ± 0.088
SLIEALRAALEAGADEVTLRIVMPEEEAEELEKALEDLGFEIVSRERVEVDGRRYLVMEIRLRAPPPEEPSA [r9_498_TrROS_Hall]	4.93 ± 0.084
SAMTLTLEFENLKDLTEEEIEEALKEAGLPGVKILGIKKTSEKWTITIAYDSSTPKEKIEAAIKKAVAESAG [r14_657_JUSTAS]	4.64 ± 0.13
SAGGSAKRKVEIEIYISREELEEAKKNGKEPTAEAQKQIHRIAKRAREEGMDTVEIKIIPPGQPIPSAGGSA [r15_304_TrROS]	0.785 ± 0.18
SAGGKITAFVLVELPDGSVVERTYEFERLDDLLAFLEADPGPKLADLEIIPPEGSDDIIIPLVARVEPSAGG [r13_796_TrMRF]	2.15 ± 0.053
SAGGSAGGAEVVKVDPKPAGVTTVLERYPDGTLRLLKETEENGKLTVSEVETIPVPDISKPPLLSAGGSAGG [r6_836_JUSTAS]	0.164 ± 0.066

assay: folding stability dG unfold (combined trypsin and chymotrypsin); higher = more stable
Method in brief: as §1

Sequence	folding stability dG unfold [kcal/mol]
SAGGSAGGSGSMEFTIDDEDLRIEIKFLPGGKVEITIWDPTNNVPLKTIETEPEEIEEVIEKLSAGGSAGGS [r20_129_JUSTAS]	2.15 ± 0.082
SAGGSAGGSMKYYKTKDGKIVKAPPIETVKLKLKLEINGKKIEIEIEMSKEEIDKLLKELEKKSAGGSAGGS [r20_148_TrROS_Hall]	1.05 ± 0.13
SAGGSAGGSAGGNPPDWKPVGEEEFPIPNPNGMQIKISVWTIRAPDDGKSASFIDIEMYPSAGGSAGGSAGG [r7_546_TrROS]	1.58 ± 0.32
SAGGSAGGSAGVIVTPEGDRIVTYDPNTGSVTVTPLDAAGNPLTTTVVAPNGPVVTVTELSAGGSAGGSAGG [r17_385_JUSTAS]	1.22 ± 0.034
SAGGSAGGSAGMPIEKALEQADKNGRPVQIRVPNGRDIYITVKYKNGKYKIEIMPAEEIKSAGGSAGGSAGG [r17_463_TrROS]	1.51 ± 0.18
MEEEEKKKAETPEIPEEVAREKALEVARELGLEEIEEIEVLSASPEGYVTVRITLPTGGEVEITIPISELES [r1_435_JUSTAS]	2.54 ± 0.18
SAGGSAGGSAGGLTFRLPDGTRVRVRVELNEDGELRITVEVEPLPPPPPKVEFYSEEELKSAGGSAGGSAGG [r7_660_TrROS_Hall]	2.92 ± 0.12
SAGGSSVSSVTLLSSETYTEGEKTFKRTTYLVPLPDGTTAIVTTEETTPPENPPEVEVSSSTTPLPGSAGGS [r16_121_JUSTAS]	1.63 ± 0.086
SAGFYFRITEITVNPDAGKLTIRNPNGQEQEIPPGGKISIKMRFYRFNDNGGKPETFEMEHTIPIPPGDSAG [r14_366_TrROS]	3.15 ± 0.12
SAGGAPVTVREEELPENSKLITIEYPDGLTLEVLEYPDKVLVREWDTATGKELSSRTLTHEELEKLLSAGGS [r8_476_JUSTAS]	2.19 ± 0.14
SAGGSMDLRVVVVGEDGKVLELPAGEEVSLPDVVAFFSELGDFEVEAHPESGTLTIRVPKGVLEEASAGGSA [r2_164_TrMRF]	0.728 ± 0.046
SAGMKTYTITVPASEAEEAAEKAAEEIKKELGLPDSDTVEVTVTSYDPKTGTVTITITVTRPLPGGLSLSAG [r5_537_JUSTAS]	2.19 ± 0.2
SMKIKIEKVEDGYYKIKIYDKKTKKEYTIIVPKNMKPGQVELVNRNGKKITMTLEEIKKLLPPGAEVEIVSA [r9_250_TrROS_Hall]	2.21 ± 0.1
SAGGSMIEEAIEEALKKGLEKVEIEVEVEVNGKIYRVKMEIVKVEEGKVEIKIEVEEIDPETGKLISAGGSA [r2_420_TrROS_Hall]	3.53 ± 0.19
SAGASPGVRLTERSEEVIEVEPGEKEKLKEEIKKSEKKYPGGLTEKVEYEVDPNSNKVTITITTTTGLSAGG [r19_45_JUSTAS]	0.383 ± 0.33
SAGGSAGGPIDLDDIKIEEIEHERNPNGMMYHEVTIRFPGGKIPVWFHPNMSLDNAVDMLRAFISAGGSAGG [r6_233_TrROS]	1.19 ± 0.11
SAGRKIPIMFTWPNGDPERMEEIAIEFANYLQPNGLPNVTIKIERKPVKDPENGKRRYVYMVTIEVQPPSAG [r5_49_TrROS]	2.44 ± 0.2
SAGGSAGGSAGMVITLPNGEKVEITFDKENKKITITFPDGKKVEIEIEGMSLEEILKALKSAGGSAGGSAGG [r11_729_TrROS_Hall]	3.59 ± 0.089
SKNKVEITIPMPYSQAREIARQLGLPPEKFKDPKDLVDWLKDLFPKDVKIRIQPMKPVTEEERRARQNGKSA [r9_74_TrROS]	1.12 ± 0.085
SAGGSAGGMKVIEIDLPDGSKLKIVIYKDGTLPAYLPEGNKVIVLEIDKNGKIKSVKVFDAKDISAGGSAGG [r6_81_TrMRF]	3.21 ± 0.25
SAGGSAGGSGGKPLLIFTAMNGPEAEELVKKLLEEGGAGPIVAVVIPAPKDDPLFKEFFEKLKSAGGSAGGS [r12_649_TrMRF]	1.34 ± 0.14

Sequence	folding stability dG unfold [kcal/mol]
SAYKITIKITITDPVTGETTTITVELISSEEEAKKEAEKLAASYPGKKVTIDLVEVVPVPPLSEEELKLSSA [r9_421_JUSTAS]	2.43 ± 0.12
SAGGSAGGSAGMEIEEKGDYLVIRIKVKEGETIELPEGWEVVDVEYDPETEEVTIVIRRKSAGGSAGGSAGG [r11_942_TrROS_Hall]	3.9 ± 0.28
SAGMNLSPEEIAERIREEAKKKYPNSEVEVRIVSQPPTTIVLEVKITIYFPEEGGSIIEEPRVITIDRLSAG [r14_187_JUSTAS]	2.15 ± 0.13
SAGGSAGGKKFKPGQVVLDPKTKELYVIKGEVTVKEDGSLSIKVEKVKLPKPKKLTKEQLEKLKSAGGSAGG [r6_771_TrROS_Hall]	0.783 ± 0.16
SAGGSASLEEVASLPASALAAAAGLTALSVEVTREPDGTVTVTIETRPPDGPVVTVTYTFPVDPAASAGGSA [r15_805_JUSTAS]	2.06 ± 0.39
SAGGSAGGSAGGGKPVKVIVVEVGGKKVLVTFDEDTGKLTVYNLDTGKTETVTVSPEDLSAGGSAGGSAGGS [r10_669_TrROS_Hall]	1.77 ± 0.16
SAGGSAGGSAGGSMTSIKITYPDGSTKSASVSVDPNTGKVTTTFTDYTLSPDAKFTTISSAGGSAGGSAGGS [r10_306_JUSTAS]	0.325 ± 0.073
SAGGSAGGSAGEEFIKKIPPGAEVKPITPLESEGKVYVKITVKKKDENGKWTEEEFIFKVSAGGSAGGSAGG [r17_140_JUSTAS]	1.28 ± 0.22
SAGGSAGGSAGGPNPDMKFEIVTIKVPPDEVPKSEPIEDPDGHNFFLHFDGNTYTIWRMDSAGGSAGGSAGG [r7_97_TrROS]	0.933 ± 0.23
SAGGSAGGSLKPFPIEDITVQPRRNPDGNRYYQVSIRIKGPGRPINIPFPMDNPKKFLEDIIKSAGGSAGGS [r20_238_TrROS]	0.285 ± 0.17
SAGGSAKVVEKDGKLVIELEVPPDMSEEELKKLAEELAKLLPPGAKIEVKYDKETKRVVIVVELKDSAGGSA [r15_210_TrROS_Hall]	1.79 ± 0.14
SKKKVTININITPGDPEQMEENVRWAIKEAAENDPDKEVTITIHFPPGHPEWMRWIKELFTKKGIPITIHSA [r9_1202_TrROS]	3.16 ± 0.059
SAGGSAGGSAETVTITLTVPPGASVEEILAALKAKYPDITSVSVERREDGYLKVTVTVRLDSAGGSAGGSAG [r3_371_TrROS_Hall]	4.46 ± 0.074
SEAEIKIKEVDENGYLVLEIKVPKEEVEKLREKLKELFPNAEIVEVKYDEETGEVTIIVRLPDGKLYEFKSA [r9_1164_TrROS_Hall]	1.06 ± 0.13
KTVHIPINGMPLDEMLDMARDALREDPDEGKTITIWVPGNPEWLENLGFDKIEPYKDPERPYMRIKFKVPPS [r1_467_TrROS]	0.816 ± 0.14
SAGGSAGGSKEEIRKRIAERLRELIPDAKITSIEFDEKTKKITITVDSPEVREALEKLPGIKPSAGGSAGGS [r12_623_TrROS_Hall]	1.53 ± 0.11
SLIEALRAALEAGADEVTLRIVMPEEEAEELEKALEDLGFEIVSRERVEVDGRRYLVMEIRLRAPPPEEPSA [r9_498_TrROS_Hall]	4.59 ± 0.1
SAMTLTLEFENLKDLTEEEIEEALKEAGLPGVKILGIKKTSEKWTITIAYDSSTPKEKIEAAIKKAVAESAG [r14_657_JUSTAS]	4.56 ± 0.18
SAGGSAKRKVEIEIYISREELEEAKKNGKEPTAEAQKQIHRIAKRAREEGMDTVEIKIIPPGQPIPSAGGSA [r15_304_TrROS]	0.309 ± 0.28
SAGGKITAFVLVELPDGSVVERTYEFERLDDLLAFLEADPGPKLADLEIIPPEGSDDIIIPLVARVEPSAGG [r13_796_TrMRF]	1.77 ± 0.1
SAGGSAGGAEVVKVDPKPAGVTTVLERYPDGTLRLLKETEENGKLTVSEVETIPVPDISKPPLLSAGGSAGG [r6_836_JUSTAS]	0.0779 ± 0.11

Reference: the supplement of paper PMC12764529
